# Experimental data published in US20160368993A1 (University of California, published 2016).
# Molecular target: T1, αvβ6 integrin (R&D Systems), immobilized (UniProt P06756 31-992; P18564 22-707)
# T1 construct: Bought protein captured on the plate by the anti-αv antibody P2W7; also called immobilized αvβ6 integrin
# Assay: competitive binding ELISA against biotinylated fibronectin on immobilized αvβ6 integrin
# Procedure: Separate competitive binding ELISAs were used to determine the binding affinity of the anti-αᵥβ₆ diabody and Cys-diabody relative to biotinylated fibronectin, a known natural ligand of the αᵥβ₆ integrin. Biotinylation of fibronectin was performed according to the manufacturer's instructions (Amersham Biosciences). The P2W7 antibody (anti-αᵥ, 5 μg/mL, Abcam) was plated into wells (50 μL/well) of a 96-well plate (Maxisorp®, Nunc). The plate was incubated at 37° C. for 1 h then washed with PBS (3×). After washing, the wells were blocked with blocking buffer (PBS, 5% bovine serum albumin (BSA), 1% Tween 20) and the plate was incubated at room temperature for 3 hrs, followed by washing with PBS (3×). The αᵥβ₆ integrin (3 μg/mL, R&D Systems) in conjugate buffer (20 mM Tris, 1 mM MnCl2, 150 mM NaCl, 0.1% Tween, 1% BSA) was added to the wells (50 μL/well). The plate was incubated at room temperature for 1 h and washed with wash buffer (20 mM Tris, 1 mM MnCl2, 150 mM NaCl, 0.1% Tween, 3×). […] Extravidin HRP conjugate was detected using 3,3′,5,5′-tetramethylbenzidine (TMB) substrate (50 μL/well) for 10-15 mins at room temperature. The reaction was terminated by the addition of 1N sulfuric acid (50 μL/well) and the absorbance of each well was measured in a Multiscan Ascent plate reader (Thermo) at 450 nm. […]
# T1 sequence (P06756 31-992, chain 1 of 2): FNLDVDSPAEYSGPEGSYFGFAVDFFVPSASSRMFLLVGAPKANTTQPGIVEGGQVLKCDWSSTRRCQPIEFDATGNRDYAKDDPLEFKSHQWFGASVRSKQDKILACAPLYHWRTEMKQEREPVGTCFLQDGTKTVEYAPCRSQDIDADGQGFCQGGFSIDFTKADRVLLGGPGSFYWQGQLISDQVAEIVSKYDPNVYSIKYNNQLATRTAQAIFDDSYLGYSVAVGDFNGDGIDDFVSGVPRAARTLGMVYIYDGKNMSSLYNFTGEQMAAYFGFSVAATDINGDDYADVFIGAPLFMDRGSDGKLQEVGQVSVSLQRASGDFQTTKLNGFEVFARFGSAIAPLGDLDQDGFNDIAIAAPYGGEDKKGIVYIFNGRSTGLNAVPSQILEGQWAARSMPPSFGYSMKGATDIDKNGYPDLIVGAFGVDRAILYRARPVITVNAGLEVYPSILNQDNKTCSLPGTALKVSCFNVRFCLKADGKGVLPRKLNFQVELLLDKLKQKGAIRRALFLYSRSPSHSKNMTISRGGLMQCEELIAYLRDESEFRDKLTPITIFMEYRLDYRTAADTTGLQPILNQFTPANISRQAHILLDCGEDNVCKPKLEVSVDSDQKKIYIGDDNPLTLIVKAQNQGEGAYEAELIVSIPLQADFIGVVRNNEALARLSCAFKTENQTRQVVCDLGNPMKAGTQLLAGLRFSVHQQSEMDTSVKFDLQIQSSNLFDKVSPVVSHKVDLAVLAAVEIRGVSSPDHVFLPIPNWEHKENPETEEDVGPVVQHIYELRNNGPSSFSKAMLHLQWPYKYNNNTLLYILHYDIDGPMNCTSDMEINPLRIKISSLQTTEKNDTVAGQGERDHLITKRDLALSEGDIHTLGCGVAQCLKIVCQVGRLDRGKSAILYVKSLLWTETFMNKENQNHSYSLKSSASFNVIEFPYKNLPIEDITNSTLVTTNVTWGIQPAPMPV
# T1 sequence (P18564 22-707, chain 2 of 2): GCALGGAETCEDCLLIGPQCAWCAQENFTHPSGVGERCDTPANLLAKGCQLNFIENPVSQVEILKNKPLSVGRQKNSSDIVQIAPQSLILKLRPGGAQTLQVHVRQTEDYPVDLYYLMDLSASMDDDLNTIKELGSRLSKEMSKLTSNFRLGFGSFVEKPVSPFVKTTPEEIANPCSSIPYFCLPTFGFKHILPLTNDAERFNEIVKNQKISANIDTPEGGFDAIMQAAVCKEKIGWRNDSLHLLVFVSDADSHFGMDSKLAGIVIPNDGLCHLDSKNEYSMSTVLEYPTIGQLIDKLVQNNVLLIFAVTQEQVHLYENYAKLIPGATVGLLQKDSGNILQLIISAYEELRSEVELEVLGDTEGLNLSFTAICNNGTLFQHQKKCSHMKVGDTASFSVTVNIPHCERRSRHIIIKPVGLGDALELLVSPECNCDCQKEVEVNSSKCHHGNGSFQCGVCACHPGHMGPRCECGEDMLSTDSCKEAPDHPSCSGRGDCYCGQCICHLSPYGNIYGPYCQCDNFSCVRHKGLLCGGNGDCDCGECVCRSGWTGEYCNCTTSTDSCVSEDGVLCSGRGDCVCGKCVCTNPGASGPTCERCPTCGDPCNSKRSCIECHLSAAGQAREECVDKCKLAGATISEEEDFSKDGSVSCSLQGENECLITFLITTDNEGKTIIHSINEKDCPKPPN
row,IC50 [nM],Binder
1,0.6,"anti-αvβ6 Cys-diabody (other, C-terminal engineered cysteines of the two chains form an interchain disulfide, Covalent dimer; also called disulfide-stabilized anti-αvβ6 Cys-diabody; B6DiaR-G2S-Cys) scFv: EVQLVESGGGLVQPGGSLRLSCAASGFTFSRYVMSWVRQAPGKGLEWVASISSGGRMYYPDTVKGRFTISRDNAKNSLYLQMNSLRAEDTAVYYCARGSIYDGYYVFPYWGQGTLVTVSSGGSEIVLTQSPATLSLSPGERATLSCSASSSVSSSYLYWYQQKPGQAPRLLIYSTSNLASGIPARFSGSGSGTDFTLTISSLEPEDFAVYYCHQWSTYPPTFGGGTKVEIKHHHHHHGGC"
2,0.8,"anti-αvβ6 diabody (other, Non-covalent dimer of two VH-G2S-VL-His6 chains (diabody), secreted from 293-F cells; also called B6DiaR-G2S; parental anti-αvβ6 diabody) scFv: EVQLVESGGGLVQPGGSLRLSCAASGFTFSRYVMSWVRQAPGKGLEWVASISSGGRMYYPDTVKGRFTISRDNAKNSLYLQMNSLRAEDTAVYYCARGSIYDGYYVFPYWGQGTLVTVSSGGSEIVLTQSPATLSLSPGERATLSCSASSSVSSSYLYWYQQKPGQAPRLLIYSTSNLASGIPARFSGSGSGTDFTLTISSLEPEDFAVYYCHQWSTYPPTFGGGTKVEIKHHHHHH"
